{"source": "paper PMC4592603", "about": "“Cloning, Expression, Sequence Analysis and Homology Modeling of the Prolyl Endoprotease from Eurygaster integriceps Puton” (Insects, 2014)", "proteins": {"B1": {"name": "spPEP (sunn pest prolyl endoprotease) (Eurygaster integriceps) (protein)", "chain": "MKKFQYPEARRDETIKETFFGIEVADPYRWLEDPDSEETKNFVDAQNSISEPYLKGCPARDKIKARLTQMLDYPKYSPPEKEGNHYFYFKNTGLQNHSVLYMQDSLDGPSKVFLDPNTFSSDGTVALTSTSFSEDGSIMGYTVSKSGSDWCTIHFRRVDTGEDYPEELKFVKFGHAAWTHDNLGVFYTRFPEVEGKSDGSETSQNRNQKIYYHKVGTPQSEDILVVELDDPEYIYTVCVSDCGRGVVILPSKFCHNNLVYFSDLSTLKDGIKGKLDVTCIVDKFEADYEFVANTGSKFVFRTNKNAHNYKLVVIDFENHSEENWVTLVPEHPTDVLEQAVSVAQDKLVLCYIRDVKNTLDIHSLVDGSLIRKIPVPIGTVSSISGSKKHSEVFYTFISFTSPGTIYRCDLSQSPIPDPEVFRQITIPGYDPSMFEEKQVFYLSKDGTRIPMFLVHKKVLEQNGKNPCLVYGYGGFNISLLPMFSTIRLVFVQYFNAVFASANIRGGGEYGEKWHDGGRLLNKQNSFDDFIAAGEYLIAEKYTNKSCLAIQGASNGGLLIGASVKPPYWLLEDPEYIYTVCVSDCGRWAVILPSKFCYNNLVYFSVLFQEEHFKNVLKYSPLHNIRVPEDQYPALLLLTASHDDRVVPLHSLKYIAQLQHVMRDNPKQENPLLIQVETKAGHGAGKPTNKRIEEQVDILCFLMNSMNLKFIE", "notes": "full-length ORF (no signal peptide identified), N-terminal FLAG and 10xHis tag, pNYCOMPS-LIC vector, E. coli BL21(DE3), soluble fraction, Ni-NTA, about 80 kDa, tags not reported cut"}}, "substrate": "O=C(NCC(=O)N1CCC[C@H]1C(=O)Nc1ccc([N+](=O)[O-])cc1)OCc1ccccc1", "test": "purified protein", "format": "biochemical, Eurygaster integriceps", "settings": "25 mM ethanolamine, pH 8.5, 0.1 M NaCl, 1 mM DTT, 37 °C, abstract prints 210 ± 53 µM", "data": [{"protein": "B1", "values": [{"measurement": "Km", "value": "211 ± 53", "unit": "µM"}]}]}
